The record followed here is article PMC7484176.

What is called stoichiometry N is a count of units in the complex or per binding partner.

In this experiment the target is wild-type FtrA from Brucella abortus 2308 (Brucella abortus 2308). Nature of the experiment: SEC. For orientation: SEC sorts molecules by how far they enter the pores of the column.

With “wild-type FtrA from Brucella abortus 2308 (natural protein)”, the stoichiometry N was found to be 2.
